In US20160304570A1:
Like-named read-outs stand apart in the source and are kept apart here.

Legend:
Experiment in all cases: cell-based or functional assay
[1] = target: human Nav1.3 voltage-gated sodium channel (human) (UniProt Q9NY46)
[2] = target: human Nav1.5 voltage-gated sodium channel (human) (UniProt Q14524)
[3] = target: human Nav1.7 voltage-gated sodium channel (human) (UniProt Q15858)
[4] = target: human Nav1.4 voltage-gated sodium channel (human) (UniProt P35499)
[5] = target: human voltage-gated sodium channel Nav1.5 (human) (UniProt Q14524)
[6] = target: human voltage-gated sodium channel Nav1.4 (human) (UniProt P35499)
[7] = target: human voltage-gated sodium channel Nav1.3 (human) (UniProt Q9NY46)
[8] = target: human voltage-gated sodium channel Nav1.7 (human) (UniProt Q15858)
[9] = target: human voltage-gated sodium channel Nav1.5 (human) (UniProt Q14524); remark: listed apart in the source
[10] = target: human voltage-gated sodium channel Nav1.3 (human) (UniProt Q9NY46); remark: listed apart in the source
[11] = target: human voltage-gated sodium channel Nav1.7 (human) (UniProt Q15858); remark: listed apart in the source
[12] = target: human Nav1.5 voltage-gated sodium channel (human) (UniProt Q14524); remark: listed apart in the source
[13] = target: human Nav1.7 voltage-gated sodium channel (human) (UniProt Q15858); remark: listed apart in the source
[14] = target: human voltage-gated sodium channel Nav1.3 (human) (UniProt Q9NY46); remark: listed apart in the source
[15] = target: human voltage-gated sodium channel Nav1.5 (human) (UniProt Q14524); remark: listed apart in the source
[16] = target: human voltage-gated sodium channel Nav1.3 (human) (UniProt Q9NY46); remark: listed apart in the source
[17] = target: human voltage-gated sodium channel Nav1.7 (human) (UniProt Q15858); remark: listed apart in the source
[18] = target: human voltage-gated sodium channel Nav1.5 (human) (UniProt Q14524); remark: listed apart in the source
[19] = target: human voltage-gated sodium channel Nav1.3 (human) (UniProt Q9NY46); remark: listed apart in the source
[20] = target: human voltage-gated sodium channel Nav1.7 (human) (UniProt Q15858); remark: listed apart in the source
[21] = target: human voltage-gated sodium channel Nav1.5 (human) (UniProt Q14524); remark: listed apart in the source
[22] = target: human voltage-gated sodium channel Nav1.3 (human) (UniProt Q9NY46); remark: listed apart in the source
[23] = target: human voltage-gated sodium channel Nav1.7 (human) (UniProt Q15858); remark: listed apart in the source
[24] = target: human voltage-gated sodium channel Nav1.5 (human) (UniProt Q14524); remark: listed apart in the source
[25] = target: human voltage-gated sodium channel Nav1.3 (human) (UniProt Q9NY46); remark: listed apart in the source
[26] = target: human voltage-gated sodium channel Nav1.7 (human) (UniProt Q15858); remark: listed apart in the source
[27] = target: human Nav1.3 voltage-gated sodium channel (human) (UniProt Q9NY46); remark: listed apart in the source
human Nav1.3 (human) = human Nav1.3 (human) (UniProt Q9NY46)
human Nav1.5 (human) = human Nav1.5 (human) (UniProt Q14524)
human Nav1.7 (human) = human Nav1.7 (human) (UniProt Q15858)
[28] = target: human ERG (hERG) potassium channel (human) (UniProt Q12809)

Chain of human voltage-gated sodium channel Nav1.7 (human) (Q15858 whole entry): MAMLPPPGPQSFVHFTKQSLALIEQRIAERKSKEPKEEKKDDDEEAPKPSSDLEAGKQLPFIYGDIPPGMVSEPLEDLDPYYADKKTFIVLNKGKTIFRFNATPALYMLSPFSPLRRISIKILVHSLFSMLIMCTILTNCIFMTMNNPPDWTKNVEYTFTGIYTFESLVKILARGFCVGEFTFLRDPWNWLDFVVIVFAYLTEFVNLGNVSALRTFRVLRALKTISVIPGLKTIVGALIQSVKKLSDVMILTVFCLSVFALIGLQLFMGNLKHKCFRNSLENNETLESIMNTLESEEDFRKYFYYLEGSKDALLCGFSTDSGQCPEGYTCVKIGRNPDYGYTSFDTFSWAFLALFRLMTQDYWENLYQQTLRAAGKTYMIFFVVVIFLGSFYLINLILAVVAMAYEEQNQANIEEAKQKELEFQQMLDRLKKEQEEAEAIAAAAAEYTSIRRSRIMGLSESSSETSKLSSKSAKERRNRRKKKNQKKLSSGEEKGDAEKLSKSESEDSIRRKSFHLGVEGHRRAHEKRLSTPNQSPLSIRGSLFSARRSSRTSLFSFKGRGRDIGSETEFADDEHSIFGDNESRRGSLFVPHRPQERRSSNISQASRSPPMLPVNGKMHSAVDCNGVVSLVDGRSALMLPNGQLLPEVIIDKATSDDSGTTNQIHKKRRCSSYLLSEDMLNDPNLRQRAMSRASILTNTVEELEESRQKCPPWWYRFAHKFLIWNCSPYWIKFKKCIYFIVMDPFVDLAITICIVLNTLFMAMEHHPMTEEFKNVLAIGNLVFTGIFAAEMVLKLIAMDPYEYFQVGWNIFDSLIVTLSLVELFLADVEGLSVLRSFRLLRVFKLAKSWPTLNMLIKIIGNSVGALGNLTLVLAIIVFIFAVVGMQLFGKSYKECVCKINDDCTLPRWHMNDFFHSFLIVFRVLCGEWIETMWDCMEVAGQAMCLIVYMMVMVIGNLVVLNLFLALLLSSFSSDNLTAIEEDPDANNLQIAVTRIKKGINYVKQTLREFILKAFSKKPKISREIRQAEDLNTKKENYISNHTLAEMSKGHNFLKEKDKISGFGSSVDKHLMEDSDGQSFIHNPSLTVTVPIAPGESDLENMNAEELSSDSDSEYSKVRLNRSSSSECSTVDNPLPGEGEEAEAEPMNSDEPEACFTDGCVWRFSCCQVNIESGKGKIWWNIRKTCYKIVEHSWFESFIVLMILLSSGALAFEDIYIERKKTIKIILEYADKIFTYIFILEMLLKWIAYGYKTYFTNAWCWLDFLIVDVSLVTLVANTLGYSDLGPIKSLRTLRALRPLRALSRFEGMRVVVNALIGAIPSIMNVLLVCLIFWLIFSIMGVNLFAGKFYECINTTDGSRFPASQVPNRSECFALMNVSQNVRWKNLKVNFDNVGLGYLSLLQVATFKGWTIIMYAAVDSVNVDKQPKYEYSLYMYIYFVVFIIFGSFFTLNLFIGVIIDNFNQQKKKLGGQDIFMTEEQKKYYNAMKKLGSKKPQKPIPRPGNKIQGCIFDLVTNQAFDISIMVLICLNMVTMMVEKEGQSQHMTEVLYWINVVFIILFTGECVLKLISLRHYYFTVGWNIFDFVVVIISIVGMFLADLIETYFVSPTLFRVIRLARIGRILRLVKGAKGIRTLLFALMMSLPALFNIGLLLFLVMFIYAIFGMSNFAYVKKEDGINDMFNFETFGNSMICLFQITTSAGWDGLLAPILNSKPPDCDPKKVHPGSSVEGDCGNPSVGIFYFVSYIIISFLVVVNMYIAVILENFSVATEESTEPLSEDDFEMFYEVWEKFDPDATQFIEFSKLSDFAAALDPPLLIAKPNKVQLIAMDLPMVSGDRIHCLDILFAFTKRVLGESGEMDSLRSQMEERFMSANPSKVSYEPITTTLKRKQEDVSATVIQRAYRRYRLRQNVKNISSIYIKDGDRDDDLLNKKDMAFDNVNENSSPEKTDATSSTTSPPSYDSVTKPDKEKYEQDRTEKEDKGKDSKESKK
Chain of human Nav1.7 voltage-gated sodium channel (human) (Q15858 whole entry): as above
Chain of human Nav1.5 voltage-gated sodium channel (human) (Q14524 whole entry): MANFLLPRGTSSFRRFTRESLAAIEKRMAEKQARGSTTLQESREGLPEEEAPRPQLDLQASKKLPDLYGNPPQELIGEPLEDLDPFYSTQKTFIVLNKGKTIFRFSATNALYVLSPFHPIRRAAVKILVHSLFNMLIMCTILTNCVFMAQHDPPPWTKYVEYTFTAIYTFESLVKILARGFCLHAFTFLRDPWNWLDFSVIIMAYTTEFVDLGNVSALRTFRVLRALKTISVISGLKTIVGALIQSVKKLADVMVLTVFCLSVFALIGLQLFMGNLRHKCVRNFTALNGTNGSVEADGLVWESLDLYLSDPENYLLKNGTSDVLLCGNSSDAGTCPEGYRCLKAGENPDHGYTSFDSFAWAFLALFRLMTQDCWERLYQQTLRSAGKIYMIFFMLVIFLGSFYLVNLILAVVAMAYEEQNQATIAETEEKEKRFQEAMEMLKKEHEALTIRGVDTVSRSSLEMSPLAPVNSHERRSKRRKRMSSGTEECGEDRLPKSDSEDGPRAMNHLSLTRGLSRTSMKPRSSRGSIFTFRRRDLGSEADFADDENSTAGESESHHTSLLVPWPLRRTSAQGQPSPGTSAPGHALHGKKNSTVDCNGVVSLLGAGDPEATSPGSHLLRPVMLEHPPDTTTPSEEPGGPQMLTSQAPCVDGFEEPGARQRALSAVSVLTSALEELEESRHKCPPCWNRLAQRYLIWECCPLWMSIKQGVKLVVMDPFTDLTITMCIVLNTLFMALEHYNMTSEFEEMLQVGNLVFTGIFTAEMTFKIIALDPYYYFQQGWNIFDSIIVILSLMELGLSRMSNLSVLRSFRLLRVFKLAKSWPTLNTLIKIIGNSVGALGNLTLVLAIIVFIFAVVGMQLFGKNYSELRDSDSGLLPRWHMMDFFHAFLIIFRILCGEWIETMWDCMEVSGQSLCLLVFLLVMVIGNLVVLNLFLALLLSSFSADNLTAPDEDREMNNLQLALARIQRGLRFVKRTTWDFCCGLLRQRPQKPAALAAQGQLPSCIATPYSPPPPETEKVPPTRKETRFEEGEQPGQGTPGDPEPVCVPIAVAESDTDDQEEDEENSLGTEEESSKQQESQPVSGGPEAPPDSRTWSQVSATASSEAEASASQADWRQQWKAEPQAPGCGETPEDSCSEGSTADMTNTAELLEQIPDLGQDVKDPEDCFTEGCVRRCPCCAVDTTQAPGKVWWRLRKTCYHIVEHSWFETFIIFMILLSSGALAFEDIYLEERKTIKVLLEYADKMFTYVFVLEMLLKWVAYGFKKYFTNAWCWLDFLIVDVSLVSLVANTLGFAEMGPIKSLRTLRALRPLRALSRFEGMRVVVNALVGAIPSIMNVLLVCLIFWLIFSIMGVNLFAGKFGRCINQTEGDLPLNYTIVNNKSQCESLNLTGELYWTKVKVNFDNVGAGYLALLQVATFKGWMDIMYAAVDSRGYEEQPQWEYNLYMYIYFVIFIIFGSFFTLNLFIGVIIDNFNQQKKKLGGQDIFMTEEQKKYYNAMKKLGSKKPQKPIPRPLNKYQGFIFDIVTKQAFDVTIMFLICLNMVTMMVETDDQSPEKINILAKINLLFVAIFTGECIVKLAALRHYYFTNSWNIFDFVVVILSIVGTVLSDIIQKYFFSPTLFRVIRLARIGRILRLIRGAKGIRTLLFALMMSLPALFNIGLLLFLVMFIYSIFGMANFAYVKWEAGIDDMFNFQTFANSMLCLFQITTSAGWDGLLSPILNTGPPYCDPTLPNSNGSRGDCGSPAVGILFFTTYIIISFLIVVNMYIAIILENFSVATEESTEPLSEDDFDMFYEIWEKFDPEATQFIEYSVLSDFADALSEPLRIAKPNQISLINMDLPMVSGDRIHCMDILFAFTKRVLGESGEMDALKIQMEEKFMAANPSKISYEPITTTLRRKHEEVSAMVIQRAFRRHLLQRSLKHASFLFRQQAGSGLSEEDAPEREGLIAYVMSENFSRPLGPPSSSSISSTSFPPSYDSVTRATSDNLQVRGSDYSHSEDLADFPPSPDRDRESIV
Chain of human Nav1.7 (human) (Q15858 whole entry): as the sequence (Q15858 whole entry) above

Substance: GpTx-6(1-34) (peptide)
- IWQ Use Nav1.3 [1]: 0.54 µM
- IWQ Use Nav1.5 [2]: 7.3 µM
- IWQ Use Nav1.7 [3]: 1.3 µM
- IWQ Use Nav1.4 [4]: 4.1 µM

Substance: ProTxII (peptide)
- Nav1.5 Use IC50 (PatchXpress whole cell patch clamp) [5]: 104 nM
- Nav1.4 Use IC50 (PatchXpress whole cell patch clamp) [6]: 32 nM
- Nav1.3 Use IC50 (PatchXpress whole cell patch clamp) [7]: 15 nM
- Nav1.7 Use IC50 (PatchXpress whole cell patch clamp) [8]: 2 nM

Substance: GpTx-3 (peptide)
- IWQ Use Nav1.3 [1]: 9.37 µM
- IWQ Use Nav1.5 [2]: 7.8 µM
- IWQ Use Nav1.7 [3]: 8.93 µM
- IWQ Use Nav1.4 [4]: 20 µM

Substance: [Ala5;Phe6;Leu26;Arg28]GpTx-1(1-34) (peptide)
- IWQ Use Nav1.3 (µM); IC50 of peak inward current, IonWorks Quattro [1]: 0.04 µM
- IWQ Use Nav1.5 (µM); IC50 of peak inward current, IonWorks Quattro [2]: 5 µM
- IWQ Use Nav1.7 (µM); IC50 of peak inward current, IonWorks Quattro [3]: 0.05 µM
- IWQ Use Nav1.4 (µM); IC50 of peak inward current, IonWorks Quattro [4]: 5 µM
- Nav1.5 Use IC50 (PatchXpress electrophysiology) [5]: > 10 µM
- Nav1.3 Use IC50 (PatchXpress electrophysiology) [7]: 0.008 µM
- Nav1.7 Use IC50 (PatchXpress electrophysiology) [8]: 0.002 µM

Substance: GpTx-6(1-35) (peptide)
- IWQ Use Nav1.3 [1]: 1.7 µM
- IWQ Use Nav1.5 [2]: 14.6 µM
- IWQ Use Nav1.7 [3]: 9.6 µM
- IWQ Use Nav1.4 [4]: 17.4 µM

Substance: [D-Phe34]GpTx-1(1-34) (peptide)
- IWQ Use Nav1.5 [9]: 20.7 µM
- IWQ Use Nav1.3 [10]: 0.52 µM
- IWQ Use Nav1.7 [11]: 0.98 µM

Substance: GpTx-2 (peptide)
- IWQ Use Nav1.3 [1]: 1.15 µM
- IWQ Use Nav1.5 [2]: 7.21 µM
- IWQ Use Nav1.7 [3]: 4.34 µM

Substance: Ac-GpTx-1(1-34) (peptide)
- Nav1.5 Use IC50 (µM), PatchXpress electrophysiology [12]: > 10 µM

Substance: GpTx-4 (peptide)
- IWQ Use Nav1.3 [1]: 4.92 µM
- IWQ Use Nav1.5 [2]: 10.4 µM
- IWQ Use Nav1.7 [3]: 9.25 µM
- IWQ Use Nav1.4 [4]: 11 µM

Substance: Huwentoxin-IV (peptide)
- Nav1.4 Use IC50 (PatchXpress whole cell patch clamp) [6]: 4500 nM
- Nav1.3 Use IC50 (PatchXpress whole cell patch clamp) [7]: 22 nM
- Nav1.7 Use IC50 (PatchXpress whole cell patch clamp) [8]: 32 nM

Substance: Huwentoxin-I (peptide)
- Nav1.5 Use IC50 (PatchXpress whole cell patch clamp) [5]: > 30000 nM
- Nav1.4 Use IC50 (PatchXpress whole cell patch clamp) [6]: 24900 nM
- Nav1.3 Use IC50 (PatchXpress whole cell patch clamp) [7]: 905 nM

Substance: GpTx-1(1-34)-FreeAcid (peptide)
- IWQ Use Nav1.5 (µM) (IC50, IonWorks Quattro population patch clamp) [5]: 9.44 µM
- IWQ Use Nav1.3 (µM) (IC50, IonWorks Quattro population patch clamp) [7]: 0.54 µM

Substance: [D-Phe5]GpTx-1(1-34) (peptide)
- IWQ Use Nav1.7 (µM): IC50 of peak inward current, IonWorks Quattro [13]: 1.23 µM

Substance: GpTx-1(1-34) (peptide)
- IWQ Use Nav1.3 [14]: 0.08 µM
- IWQ Use Nav1.3 [1]: 0.08 µM
- IWQ Use Nav1.5 [2]: 13.1 µM
- IWQ Use Nav1.7 [3]: 0.08 µM
- IWQ Use Nav1.5 (µM); IC50 of peak inward current, IonWorks Quattro [15]: 13.1 µM
- IWQ Use Nav1.3 (µM); IC50 of peak inward current, IonWorks Quattro [16]: 0.08 µM
- IWQ Use Nav1.7 (µM); IC50 of peak inward current, IonWorks Quattro [17]: 0.08 µM
- IWQ Use Nav1.5 (µM) (IC50, IonWorks Quattro population patch clamp) [18]: 13.1 µM
- IWQ Use Nav1.3 (µM) (IC50, IonWorks Quattro population patch clamp) [19]: 0.08 µM
- IWQ Use Nav1.7 (µM) (IC50, IonWorks Quattro population patch clamp) [20]: 0.08 µM
- IWQ Use Nav1.5 [21]: 13.1 µM
- IWQ Use Nav1.3 [22]: 0.08 µM
- IWQ Use Nav1.7 [23]: 0.08 µM
- IWQ Use Nav1.5 [24]: 13.1 µM
- IWQ Use Nav1.3 [25]: 0.08 µM
- IWQ Use Nav1.7 [26]: 0.08 µM
- IWQ Use Nav1.5 [9]: 13.1 µM
- IWQ Use Nav1.3 [10]: 0.08 µM
- IWQ Use Nav1.7 [11]: 0.08 µM
- IWQ Use Nav1.5 [5]: 13.1 µM
- IWQ Use Nav1.5 (µM) (IC50, IonWorks Quattro population patch clamp) [5]: 13.1 µM
- IWQ Use Nav1.5 (µM): IC50 of peak inward current, IonWorks Quattro [5]: 13.1 µM
- IWQ Use Nav1.5 (µM); IC50 of peak inward current, IonWorks Quattro [5]: 13.1 µM
- Nav1.5 Use IC50 (PatchXpress whole cell patch clamp) [5]: > 10000 nM
- IC50, peak inward hNav1.3 current, whole cell patch clamp, cells held at -140 mV [27]: 16.8 nM
- IWQ Use Nav1.3 [27]: 0.08 µM
- IWQ Use Nav1.3 (µM): IC50 of peak inward current block, IonWorks Quattro [27]: 0.08 µM
- IWQ Use Nav1.3 (µM); IC50 of peak inward current, IonWorks Quattro [27]: 0.08 µM
- IWQ Use Nav1.3 (µM) [IC50, IonWorks Quattro electrophysiology] (human Nav1.3 (human)): 0.08 µM
- IC50, hNav1.5 current, PatchXpress counterscreen [12]: 9800 nM
- IC50, peak inward hNav1.5 current, whole cell patch clamp, cells held at -140 mV [12]: 8900 nM
- IWQ Use Nav1.5 [12]: 13.1 µM
- IWQ Use Nav1.5 (µM): IC50 of peak inward current block, IonWorks Quattro [12]: 13.1 µM
- IWQ Use Nav1.5 (µM); IC50 of peak inward current, IonWorks Quattro [12]: 13.1 µM
- IWQ Use Nav1.5 (µM) [IC50, IonWorks Quattro electrophysiology] (human Nav1.5 (human)): 13.1 µM
- IWQ Use Nav1.3 [7]: 0.08 µM
- IWQ Use Nav1.3 (µM) (IC50, IonWorks Quattro population patch clamp) [7]: 0.08 µM
- IWQ Use Nav1.3 (µM): IC50 of peak inward current, IonWorks Quattro [7]: 0.08 µM
- IWQ Use Nav1.3 (µM); IC50 of peak inward current, IonWorks Quattro [7]: 0.08 µM
- Nav1.3 Use IC50 (PatchXpress whole cell patch clamp) [7]: 10 nM
- IWQ Use Nav1.7 (µM) [IC50, IonWorks Quattro electrophysiology] (human Nav1.7 (human)): 0.08 µM
- IC50, peak inward hNav1.7 current, whole cell patch clamp, cells held at -140 mV [13]: 7.4 nM
- IWQ Use Nav1.7 [13]: 0.08 µM
- IWQ Use Nav1.7 (µM): IC50 of peak inward current block, IonWorks Quattro [13]: 0.08 µM
- IWQ Use Nav1.7 (µM); IC50 of peak inward current, IonWorks Quattro [13]: 0.08 µM
- inhibition of NaV1.7 activity, IonWorks Quattro, venom sub-fraction 11 [13]: > 90%
- IC50, hERG current, PatchXpress counterscreen [28]: > 10000 nM
- IWQ Use Nav1.7 [8]: 0.08 µM
- IWQ Use Nav1.7 (µM) (IC50, IonWorks Quattro population patch clamp) [8]: 0.08 µM
- IWQ Use Nav1.7 (µM): IC50 of peak inward current, IonWorks Quattro [8]: 0.08 µM
- IWQ Use Nav1.7 (µM); IC50 of peak inward current, IonWorks Quattro [8]: 0.08 µM
- Nav1.7 Use IC50 (PatchXpress whole cell patch clamp) [8]: 5 nM
- Nav1.7 Use IC50 (µM); PatchXpress whole cell patch clamp electrophysiology [8]: 0.005 µM
